Test: label from the status in PepcDB records

Sequence	protein production
MGWFSAPEYWLGRLALERGTAIIYLIAFVAAAQQFRPLIGEHGMLPVPRYLAGQSFWRTPSIFHFRYSDRVFAGVCWLGAVLSAAVVAGAASFVPLWATMLIWLTLWVLYLSIVNVGQAWYSFGWESLLLETGFLMIFLGNERTAPPILTLLLARWLLFRVEFGAGLIKMRGDSCWRSLTCLYYHHETQPMPGPLSWFFHHLPKPLHRIEVAGNHFAQLVVPFGLFTPQPAASIAAAIIVVTQLWLVASGNFSWLNWLTILLACSAIDTSSAAALLPMPAQPALSAPPQWFAGLVVVFTAAVLLLSYWPARNLLSSHQRMNMSFNPFHLVNTYGAFGSICRTRREVVIEGTDESPITEQTVWKAYEFKGKPGDPRRLPRQWAPYHLRLDWLMWFAAISPGYALPWMTPFLNRLLRNDPATLKLLRHNPFPQSPPRYVRAQLYQYRFTTVAELRRDRAWWHRTLIGRYVPPMSLRKVASPPAD	failed
PSEAPERVMVPIANPKTVESLLDLAFIVRGQSSEPLYPLTVAQGTNGDAESEVAKAEKVLAHAVTYAAGASVPIQMLTRLDPNIASGIIRAIEETRITTLVIGWNGKRSTPQLIFGGILDQLLERTEEMVLVSK	failed
MSEYLPIIIPSVFLVIPSIAILYMEKRFSTAVYTAVIGLLISFLSFTLFFSLGYYNYGVFNNALYLTKFGYFIAISSLIATILVVLGSSNDLKNWETGTSFLSLSLLTNIGVIYLAFAYNVLVIFASWAIASAATYVIAMLKKDYQSVEAGVKYLVMGLLSSSLMIIGLAFFVTAGNTLYLDPVISYQPLIVLSIIFFSIAFLFKIGAFPFQGWLPEVYSLADRFSVGFVSSVGKIVGIEPLLVILYYLIQDNSSSQVIYLTVVILFSIISVLSLIFGNISAFSRKDFAQILAYSSITQVGFMVIGIAMLPVNMNIAISGLMVYLLSYSIAQAGLFVSLSHVEKITGSSYFESFRGMSSGDRVLAFSMTILLLSLLGIPPILGFWAKLFVLESSFSQPWLTIIGFINSAISAGYYIPPIREIFREGQFKKVDSPERDSVIVAAVLSIALGIISPLIFGVLV	failed
MSRSVLQPSQQKLAEKLTILNDRGVGMLTRLYNIKKACGDPKAKPSYLIDKNLESAVKFIVRKFPAVE	failed
MKEKISEKEYKALIRKIGKEHFDGEKEEYGDGTVGVWTYELRKYKLKPPVKVKYVTQEQFQEYKDSNNQRLIKIETTLAAQGEQIRIQVEQIKELQIEQKAQGETLKLILQTLQKMSDRLDKMEVKMDKMEEKMDKMEGKIDKIENRMDKMEVKMDKMEKRIDKLESKLEHHHHHH	failed
MTIFEKNVIEFVTVAAEFCAFLERAEHMKRKAFVDTSLKILPLLYLKASLLPKCETIGDEAPETYVTEEIYEILRINLAGLMGEKDDYLDVFVQDMVYSDQPIKKSVSEDLADIYQDIKDFIFVFQLGLNETMNDSLAICQENFGLLWGQKLVNTLRALHDVKYLEHHHHHH	failed
MEICSMSQPSSDQSVASFESKSLNILGEHIPVSELAGCEECDTVYRKVKLAAGERAYCVCCGAELYRKTRSLTSLLALVVTALIIFAIANSFPIVKVELQGNTSQTTLLGAAWTMFQIDRALVGILILFTTFIVPLLDLLLLTYILSSVGIFKQRPPYLRLALRILFLFRVWGMVEVFLIGVLVTLVKLVGMVVVIPGVALWAFAILSLLLVYIASVKIKDIWDEVDRCVP	failed
MAENGESSGPPRPSRGPAAAQGSAAAPAEPKIIKVTVKTPKEKEEFAVPENSSVQQFKEAISKRFKSQTDQLVLIFAGKILKDQDTLIQHGIHDGLTVHLVIKSQNRPQGQSTQPSNAAGT	failed
MMASYLSTPSVSYSMKSYDPVKVLYTVIISLVSLYTLYITSAFFYVLILSALFAYIIHPVYFFCIRFVKSKQICALIPLGTIFLITLASGVMIVKALMNEISRILEIPNTINGFANMDLRRIVGLFEPLIQTHPGKLTESIGAYLNSLVTDYVPQIQNNIFQISTGLSILIIELIVIVVLTYYLLVESETIATELPNLFPDRKVGVVFLGELNYIYQNLFIVYFLTCLITGIIGGVLYWALGVPYSLIWGILTFIMALLPVVGAGTVYGLLALYYVLIDDFFTAGALIFLGIVFLSIIPDFIMRPRFARNRAAIHPAITLVAFAAPVFVLGPIGIIIGPLTYGFLLAAFRTRKILGTSSAQTESSAAGSPEDLVGSQREKSDESPVGRSVERPVKASGERSRSGN	failed
MSVILLGLGRYVEEIVEVVSAISDVVLVERDEARLRAFLEKAPVANLRALPGSATDVGLWKEVDLEAAEAVISFLSVEATLDVARLLRKALGYRSKIVHVSKARPDPQAVRELDLEVVSIPEVLGAILRNLLQGQGIVRYPVGIGLRKGEVVEVLITESSPAVYARLRELRQPGARVALVYREGSPILPRADFRVQPGDRLLVVGDPRGVEIFVGAVIRGEPTFPRRFGSVGALCRAEDEEALYLKERLKVRDWVEACEDPKGVAEVGVFLARDRDWVRRAFQEGYPFPSFHLRGTHPYRSILVSANTEALSPLLASAMDLARIFGSEVYVLFVSRVEAFMPPEEKELLENLKVLVERARKTSGLEVHLIRKEGNPVRETLRLLKGKFNLLALGYTPGRRTAFFRPYVPQLLAQASPVSTLLVPEVNLER	failed
MFQAIQQKLLLMPSGKKNLLSLGMKTAITRVFSALFAFLLTLIVSRTTDASTSGQFFFLFNLVSLTAIISQRGFDVALVRFNAIAFSNGDIQQQSDNYWTALTRSITFCFMAAVTLFVGFYLFPNQLNQTNSPIVAITLALMCVPFLVLGQTNSRVLQASKMVVPSLFALQLGVSVLMVLFIMGLSTLHLQNINSLMTALLLASLIVSIASTTKWFSSGQYQKPTPTTNIELISSAKQVWIGSIFTNILQWGSIVIAGFFISTTELGLLAAAQRTSLLIGFVLITINFVVAPMFASLFKEGKLDKLRNLSRWACRANIGAALLPVLVCTLFPEFVMQLFGDEFLAAAPLLVVLSLGQLVNIATGSVGFLLLMSGHERTMKYITICSGTISIALLVFLSQSYGVLGAAWAMAIGMAIQNLAALYFVKRYLGFFPVG	failed
INIEIAYAFPERYYLKSFQVDEGITVQTAITQSGILSQFPEIDLSTNKIGIFSRPIKLTDVLKEGDRIEIYRPLLADPKEIRRK	not failed
SNRQVQLMARQQRLKAIEDRLEKFYIPLIKAFSSYVYTAQTEDEIETIITCRRYLAGNNLLRVLPMHFKFKADKIAGSANWTFYAKEDFEQWKEALDVLWEEFLEVLKEYYTLSGTEISLPEKPDWLIGYK	not failed
MGKENSKVVVLDFWASPYAMRTKVALREKGVEFEVQEEDLWNKSELLLKSNPVHKKVPVLIHNNTPISESLIQVQYIDETWTDAASFLPSDPQSRATARFWADYADKTISFEGGRKIWGNKKGEEQEKGKKEFLESLKVLEAELGDKSYFGGETFGYVDITLVPFYSWFYALEKCGDFSVEAECPKIVAWGKRCVERNSVAATLPESEKVYQQVLKLRQIFGVE	failed
MHAQTKDLTPIKGIRYYYPPDDAVLVFKDEKERIHYGGMPVPLLEDDFARLDGEPSYDEVGRGVYQALRSNPDCILCDKYAALLRDAYPHYLAELASNAIMIDSKDVEVPYLDRKIACLKVLALLEPQNPALPLEIGRVFLDRGMRLSALHLSTVSIYRAEHFLNRAHTLAPDDRNINRYLGEAYYLLGKYDEAVGFWRKATTTDEPEAERLRERIERISAGNVPLIPPVDYLEAIGAAFACNQTGEYEESIAILQDILMDPVFSEEFPIPEIHCVIGKGFTALDMPKYAEAEFRQALVMDPAHEEARALLATIAAA	failed
MRELLVFLHILSAATWIGAALWVPGDVKRTVALGRPFVEQLAARARPALKLDLYAGFAVLVTGVLLIGVDGGHPRTGILVGFAATLARLLVVGFASMPAWRRVEGAVASGDLAAATAPARRLAMLGGIGHALWAIALAGMVF	failed
IQLIVNGQSQLVPSPDSGTDSGTTNDARLNIRQLLEHMGLQGKRIAVERNGEIVPRSQFDQPMLASGDKLEIVVAVGGG	failed
ILTENTPYFEQLSVPQRSVGRIIGRGGETIRSICKASGAKITCDKESEGTLLLSRLIKISGTQKEVAAAKHLILEKVSEDEELRKRIAHSA	not failed
MTQSPDITAKSWAMVATLGFVWGGTFLINELALEGITPFWLAAGRVCFGALLSTLVWRAMGGRLFSAPLSGSERLSLVIIALLSSAVPFSLIAWGQQYVTAGFTGVSMASIALMVLPLAHFFVPGERMTWRRALGFAIGFAGVALLMGAQAFESSGAALELPGRLACLAATACYAVASILMRRLPAVDPMGLSTVLLLIGVVAVLPMAWIAEGPPPSTDLRTLGLIVFLGMVPTAAANLLRVTLIRSAGPVFMSLTNYQVPIWSVLLGAALLGEPLPPVLLWSLLLILGGVGLSQYGALRRLFTRQ	failed
MNDLVESLIYEVNNMQQNFENVKSQQQDHDFYQTVKPYTEHIDSILNEIKLHREFIIEVPYMNSRKFELLIANIEQLSVECHFKRTSRKLFIEKLKSVQYDLQNILDGVTKEGTDG	not failed
AIADELNSPLGERAQGASLAHVVWSDPQWLERYPLTFENVLTYFSRSPFYDPTCNNELVRMQMHPELQGEMLYYTQREEELLLGMQGVEYVPLCSSDAHELFIIRKQVRRSADEVHVTNLYYILYGQVYEAPAFSTVLLVRLRQSADFLVRSLGLLRQWLSKKEYGEPGATGHGHEDTLLLQLLRKAQQRNRQL	failed
MNAADRVMQSYGRCCASTGFFDDFYRHFLASSPQIRAKFATTDMTAQKHLLRAGIMNLVMYARGMSDSKLRALGASHSRAALDIRPELYDLWLDALLMAVAEHDRDCDAETRDAWRDVMGRGIAVIKSYY	not failed
MSTASYAFRDNLTMLRRNLLHARRYPSLTLNLLLTPVILLLLFVYVFGNVMSAGINGGHANRADYVDYLVPGILLLTVAMTSLGTAVAVCTDMTEGIMARFRTMAISRASVLIGHVIGSVLQTLMALVLVLGIGLAIGFRPDASPVEWIAAAALMALTSLAMTWLAVGIGLVSPNPEGASNIGTPLVMLPFLSSAFVPVDAMPGWFRWFAEYQPFSPLIETLRGLLLGSGIGTRNAVLAVAWCLGLSLLGYLWSKARFNREPRH	failed
MCPKNASYYGNRAATLMMLGRFREALGDAQQSVRLDDSFVRGHLREGKCHLSLGNAMAACRSFQRALELDHKNAQAQQEFKNANAVMEYEKIAETDFEKRDFRKVVFCMDRALEFAPACHRFKILKAECLAMLGRYPEAQSVASDILRMDSTNADALYVRGLCLYYEDCIEKAVQFFVQALRMAPDHEKACIACRNAKALKAKKEDGNKAFKEGNYKLAYELYTEALGIDPNNIKTNAKLYCNRGTVNSKLRKLDDAIEDCTNAVKLDDTYIKAYLRRAQCYMDTEQYEEAVRDYEKVYQTEKTKEHKQLLKNAQLELKKSKRKDYYKILGVDKNASEDEIKKAYRKRALMHHPDRHSGASAEVQKEEEKKFKEVGEAFTILSDPKKKTRYDSGQDLDEEGMNMGDFDPNNIFKAFFGGPGGFSFEASGPGNFFFQFG	failed
MLQSKVFKYSRWDIACCLVIPFQISVYALLAYYYQSMSLLALLGMIPVLFALSLQNAGANHNHYHTPFFRIRWMNTLTRMGFSATEAPKTPYNIGHGIHHATHQSWNDKSILAVLGLKRSIAQQLISFGLFIFESLGVKYFTLLVLLKYWPIERVAVLASPEDPVLAARALKKLLEPAKLKAAKYDLAAWFLFRLVLCVVDWQFFFFYFIPVTYLIDTLRQGENYFQHWGATDPNDPKRDSVSCYSTLYNLLTFNLGYHQEHHYKPGLHWLKLPELTKELPSDRHTVPYSHYLNSPLMFPERASQLRKENVADVSP	failed
